B1: CE115HA000 A99T (antibody, human IgG1, kappa, L234A L235A, N297A, name in Kabat numbering)
heavy: QVQLVESGGGVVQPGRSLRLSCAASGFTFSNAWMHWVRQAPGKGLEWVAQIKAKSNNYATYYAESVKGRFTISRDDSKNSLYLQMNSLKTEDTAVYYCRYVHYGTYYGVDAWGQGTTVTVSSASTKGPSVFPLAPSSKSTSGGTAALGCLVKDYFPEPVTVSWNSGALTSGVHTFPAVLQSSGLYSLSSVVTVPSSSLGTQTYICNVNHKPSNTKVDKKVEPKSCDKTHTCPPCPAPEAAGGPSVFLFPPKPKDTLMISRTPEVTCVVVDVSHEDPEVKFNWYVDGVEVHNAKTKPREEQYASTYRVVSVLTVLHQDWLNGKEYKCKVSNKALPAPIEKTISKAKGQPREPQVYTLPPSRCELTKNQVSLSCAVKGFYPSDIAVEWESNGQPENNYKTTPPVLDSDGSFFLVSKLTVDKSRWQQGNVFSCSVMHEALHNHYTQKSLSLSPDYKDDDDK
chain: EPKSSDKTHTCPPCPAPELLGGPSVFLFPPKPKDTLMISRTPEVTCVVVDVSHEDPEVKFNWYVDGVEVHNAKTKPREEQYNSTYRVVSVLTVLHQDWLNGKEYKCKVSNKALPAPIEKTISKAKGQPREPQVCTLPPSRDELTKNQVSLWCLVKGFYPSDIAVEWESNGQPENNYKTTPPVLDSDGSFFLYSKLTVDKSRWQQGNVFSCSVMHEALHNRYTQKSLSLSP
light: DIVMTQSPLSLPVTPGEPASISCRSSQSLVHSNRNTYLHWYQQKPGQAPRLLIYKVSNRFSGVPDRFSGSGSGTDFTLKISRVEAEDVGVYYCGQGTQVPYTFGQGTKLEIKRTVAAPSVFIFPPSDEQLKSGTASVVCLLNNFYPREAKVQWKVDNALQSGNSQESVTEQDSKDSTYSLSSTLTLSKADYEKHKVYACEVTHQGLSSPVTKSFNRGEC
notes: one-arm antibody
B2: CE115HA000 A102I (antibody, human IgG1, kappa, L234A L235A, N297A, name in Kabat numbering)
heavy: B1 heavy with T105A, A111I
chain: B1 chain
light: B1 light
notes: one-arm antibody
B3: CE115HA000 D101Y (antibody, human IgG1, kappa, L234A L235A, N297A, name in Kabat numbering)
heavy: B1 heavy with T105A, D110Y
chain: B1 chain
light: B1 light
notes: one-arm antibody
B4: CE115HA000 D73R (antibody, human IgG1, kappa, L234A L235A, N297A, name in Kabat numbering)
heavy: B1 heavy with D76R, T105A
chain: B1 chain
light: B1 light
notes: one-arm antibody
B5: CE115HA000 A99Y (antibody, human IgG1, kappa, L234A L235A, N297A, name in Kabat numbering)
heavy: B1 heavy with T105Y
chain: B1 chain
light: B1 light
notes: one-arm antibody
B6: CE115HA000 D73G (antibody, human IgG1, kappa, L234A L235A, N297A, name in Kabat numbering)
heavy: B1 heavy with D76G, T105A
chain: B1 chain
light: B1 light
notes: one-arm antibody
B7: CE115HA000 D73K (antibody, human IgG1, kappa, L234A L235A, N297A, name in Kabat numbering)
heavy: B1 heavy with D76K, T105A
chain: B1 chain
light: B1 light
notes: one-arm antibody
B8: CE115HA000 D101K (antibody, human IgG1, kappa, L234A L235A, N297A, name in Kabat numbering)
heavy: B1 heavy with T105A, D110K
chain: B1 chain
light: B1 light
notes: one-arm antibody
B9: CE115HA000 D73A (antibody, human IgG1, kappa, L234A L235A, N297A, name in Kabat numbering)
heavy: B1 heavy with D76A, T105A
chain: B1 chain
light: B1 light
notes: one-arm antibody
B10: CE115HA000 D101I (antibody, human IgG1, kappa, L234A L235A, N297A, name in Kabat numbering)
heavy: B1 heavy with T105A, D110I
chain: B1 chain
light: B1 light
notes: one-arm antibody
B11: CE115HA000 D101S (antibody, human IgG1, kappa, L234A L235A, N297A, name in Kabat numbering)
heavy: B1 heavy with T105A, D110S
chain: B1 chain
light: B1 light
notes: one-arm antibody
B12: CE115HA000 D101M (antibody, human IgG1, kappa, L234A L235A, N297A, name in Kabat numbering)
heavy: B1 heavy with T105A, D110M
chain: B1 chain
light: B1 light
notes: one-arm antibody
B13: CE115HA000 D101V (antibody, human IgG1, kappa, L234A L235A, N297A, name in Kabat numbering)
heavy: B1 heavy with T105A, D110V
chain: B1 chain
light: B1 light
notes: one-arm antibody
B14: CE115HA000 D101T (antibody, human IgG1, kappa, L234A L235A, N297A, name in Kabat numbering)
heavy: B1 heavy with T105A, D110T
chain: B1 chain
light: B1 light
notes: one-arm antibody
B15: CE115HA000 D101P (antibody, human IgG1, kappa, L234A L235A, N297A, name in Kabat numbering)
heavy: B1 heavy with T105A, D110P
chain: B1 chain
light: B1 light
notes: one-arm antibody
B16: CE115HA000 D73T (antibody, human IgG1, kappa, L234A L235A, N297A, name in Kabat numbering)
heavy: B1 heavy with D76T, T105A
chain: B1 chain
light: B1 light
notes: one-arm antibody
B17: CE115HA000 D101G (antibody, human IgG1, kappa, L234A L235A, N297A, name in Kabat numbering)
heavy: B1 heavy with T105A, D110G
chain: B1 chain
light: B1 light
notes: one-arm antibody
B18: CE115HA000 D101H (antibody, human IgG1, kappa, L234A L235A, N297A, name in Kabat numbering)
heavy: B1 heavy with T105A, D110H
chain: B1 chain
light: B1 light
notes: one-arm antibody
B19: CE115HA000 A102Y (antibody, human IgG1, kappa, L234A L235A, N297A, name in Kabat numbering)
heavy: B1 heavy with T105A, A111Y
chain: B1 chain
light: B1 light
notes: one-arm antibody
B20: CE115HA000 A102P (antibody, human IgG1, kappa, L234A L235A, N297A, name in Kabat numbering)
heavy: B1 heavy with T105A, A111P
chain: B1 chain
light: B1 light
notes: one-arm antibody
B21: CE115HA000 D72A (antibody, human IgG1, kappa, L234A L235A, N297A, name in Kabat numbering)
heavy: B1 heavy with D75A, T105A
chain: B1 chain
light: B1 light
notes: one-arm antibody
B22: CE115HA000 D101N (antibody, human IgG1, kappa, L234A L235A, N297A, name in Kabat numbering)
heavy: B1 heavy with T105A, D110N
chain: B1 chain
light: B1 light
notes: one-arm antibody
B23: CE115HA000 D73N (antibody, human IgG1, kappa, L234A L235A, N297A, name in Kabat numbering)
heavy: B1 heavy with D76N, T105A
chain: B1 chain
light: B1 light
notes: one-arm antibody
B24: CE115HA000 D101R (antibody, human IgG1, kappa, L234A L235A, N297A, name in Kabat numbering)
heavy: B1 heavy with T105A, D110R
chain: B1 chain
light: B1 light
notes: one-arm antibody
B25: CE115HA000 D101A (antibody)
heavy: B1 heavy with T105A, D110A
Fc: B1 chain
light: B1 light
notes: one-arm antibody
B26: CE115HA000 D101Q (antibody, human IgG1, kappa, L234A L235A, N297A, name in Kabat numbering)
heavy: B1 heavy with T105A, D110Q
chain: B1 chain
light: B1 light
notes: one-arm antibody
B27: CE115HA000 D101F (antibody, human IgG1, kappa, L234A L235A, N297A, name in Kabat numbering)
heavy: B1 heavy with T105A, D110F
chain: B1 chain
light: B1 light
notes: one-arm antibody
B28: CE115HA000 D72V (antibody, human IgG1, kappa, L234A L235A, N297A, name in Kabat numbering)
heavy: B1 heavy with D75V, T105A
chain: B1 chain
light: B1 light
notes: one-arm antibody
B29: CE115HA000 D101L (antibody, human IgG1, kappa, L234A L235A, N297A, name in Kabat numbering)
heavy: B1 heavy with T105A, D110L
chain: B1 chain
light: B1 light
notes: one-arm antibody
B30: CE115HA000 A102V (antibody, human IgG1, kappa, L234A L235A, N297A, name in Kabat numbering)
heavy: B1 heavy with T105A, A111V
chain: B1 chain
light: B1 light
notes: one-arm antibody
B31: CE115HA000 D73E (antibody, human IgG1, kappa, L234A L235A, N297A, name in Kabat numbering)
heavy: B1 heavy with D76E, T105A
chain: B1 chain
light: B1 light
notes: one-arm antibody
B32: CE115HA000 D72E (antibody, human IgG1, kappa, L234A L235A, N297A, name in Kabat numbering)
heavy: B1 heavy with D75E, T105A
chain: B1 chain
light: B1 light
notes: one-arm antibody

Residue numbers refer to the chain shown, from its start.

This experiment deals with T1, CD3 epsilon homodimer protein (UniProt P07766 23-126).
T1 construct: also called CD3 (CD3 epsilon)
T1 sequence (P07766 23-126): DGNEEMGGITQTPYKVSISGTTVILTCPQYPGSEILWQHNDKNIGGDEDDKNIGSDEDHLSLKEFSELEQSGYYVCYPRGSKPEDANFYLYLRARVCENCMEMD
The experiment can be described thus: SPR, CD3 epsilon homodimer on chip, one-arm antibody as analyte.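 Note: surface plasmon resonance at 25 °C with CD3 epsilon homodimer amine-coupled to a CM4 sensor chip, antibody injected as analyte, HBS-EP+ as running buffer.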 In general terms: Surface plasmon resonance follows binding to a sensor surface in real time, without labels.
Turning to B1, the “KD ratio (KD of CE115HA000/KD of altered form)” value (“KD ratio” for short) is 0.93. For the molecule B2, the “KD ratio” value amounted to 1.29. B3: the “KD ratio” value was 0.97.

Regarding B4, the “KD ratio” value worked out at 0.79.

Take B5: the “KD ratio” value was 1.25. In the case of B6 it was 0.78; in that of B7, 0.74.

In the case of B8, the “KD ratio” value was 4.37. Regarding B9, the “KD ratio” value was found to be 0.73. On to B10, for which the “KD ratio” value stood at 1.73. As for B11, the “KD ratio” value is 0.91. Consider B12, for which the “KD ratio” value is 1.94. On to B13, for which the “KD ratio” value stood at 1.18.

For B14, the “KD ratio” value turned out to be 0.62. On to B15, for which the “KD ratio” value was determined as 43.4. Regarding B16, the “KD ratio” value is 0.78. Turning to B17, the “KD ratio” value was found to be 3.16. As to B18, the “KD ratio” value was found to be 0.91. In the case of B19 it was 1; in that of B20, 3.51. Take B21: the “KD ratio” value amounted to 1.19.

B22: the “KD ratio” value came to 2.28. In the case of B23 it was 0.7; in that of B24, 5.56.

B25: the “KD ratio” value was 0.86.

Consider B26, for which the “KD ratio” value is 3.55. Take B27: the “KD ratio” value was determined as 0.73. In the case of B28 it was 1.17; in that of B29, 0.71; in that of B30, 1.27. In the case of B31, the “KD ratio” value is 0.56. Regarding B32, the “KD ratio” value is 0.73.
